# Source: patent US20250163167A1 (SYNTHEKINE, published 2025)
# T1: human IL-10 receptor (hIL-10R alpha and beta chains) on HEK-Blue IL-10 reporter cells (human, UniProt Q13651 22-578; Q08334 20-325)
# T1 sequence 1: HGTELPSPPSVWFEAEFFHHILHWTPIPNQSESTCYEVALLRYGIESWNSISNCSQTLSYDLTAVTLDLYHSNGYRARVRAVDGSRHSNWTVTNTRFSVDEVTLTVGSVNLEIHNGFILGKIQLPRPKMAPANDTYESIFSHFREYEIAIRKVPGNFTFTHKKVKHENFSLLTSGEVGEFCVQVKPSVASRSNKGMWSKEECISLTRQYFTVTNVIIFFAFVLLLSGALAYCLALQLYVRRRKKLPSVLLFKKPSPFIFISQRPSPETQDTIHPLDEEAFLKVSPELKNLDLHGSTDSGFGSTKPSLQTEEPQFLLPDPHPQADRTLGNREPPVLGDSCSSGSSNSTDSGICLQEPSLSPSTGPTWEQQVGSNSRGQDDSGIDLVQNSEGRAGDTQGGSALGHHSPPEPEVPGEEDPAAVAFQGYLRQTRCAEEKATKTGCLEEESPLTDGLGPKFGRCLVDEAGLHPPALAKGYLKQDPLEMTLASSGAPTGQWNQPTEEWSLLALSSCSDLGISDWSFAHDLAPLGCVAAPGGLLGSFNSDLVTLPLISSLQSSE
# T1 sequence 2: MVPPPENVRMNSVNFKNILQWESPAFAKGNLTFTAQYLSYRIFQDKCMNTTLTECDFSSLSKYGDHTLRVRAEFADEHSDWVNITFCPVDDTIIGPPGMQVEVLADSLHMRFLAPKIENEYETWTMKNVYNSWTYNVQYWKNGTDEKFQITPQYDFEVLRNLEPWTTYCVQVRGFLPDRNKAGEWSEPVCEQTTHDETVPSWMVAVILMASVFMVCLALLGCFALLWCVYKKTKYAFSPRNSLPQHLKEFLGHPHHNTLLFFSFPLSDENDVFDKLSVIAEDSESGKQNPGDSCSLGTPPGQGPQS
# B1: IL10R binding molecule of SEQ ID NO: 339 (bispecific antibody)
# chain: QVQLQESGGGSVEAGGSLRLSCAASGYTHSSYCMGWFRQAPGKEREGVAAIDVDGSTTYADSVKGRFTISKDNAKNTLYLQMNSLKPEDTGMYYCAAEFADCSSNYFLPPGAVRYWGQGTQVTVSSGGGSQVQLQESGGGSVQAGGSLRLSCAASGYSNCSYDMTWYRQAPGKEREFVSAIHSDGSTRYADSVKGRFFISQDNAKNTVYLQMNSLKPEDTAMYYCKTDPLHCRAHGGSWYSVRANYWGQGTQVTVSSASHHHHHH
# B2: IL10R binding molecule of SEQ ID NO: 262 (bispecific antibody)
# chain: QVQLQESGGGSVQAGGSLRLSCAASRYLYSIDYMAWFRQSPGKEREPVAVIYTASGATFYPDSVKGRFTISQDNAKMTVYLQMNSLKSEDTAMYYCAAVRKTDSYLFDAQSFTYWGQGTQVTVSSGGGSQVQLQESGGGSVQTGGSLRLSCAASGYTYLRGCMGWFRQAPGKEREGVAVMDVVGDRRSYIDSVKGRFTISRDNAANSVYLQMDNLKPEDTAMYYCTAGPNCVGWRSGLDYWGQGTQVTVSSASHHHHHH
# B3: IL10R binding molecule of SEQ ID NO: 330 (bispecific antibody)
# chain: QVQLQESGGGSVQAGGSLRLSCTVSRYTASVNYMGWFRQAPGKEREGVATIFTGAGTTYYANSVKGRFTISRDNAKNTAYLQMNSLKPEDTAIYYCAVDFRGGLLYRPAYEYTYRGQGTQVTVSSGGGSQVQLQESGGGSVQAGGSLRLSCTVSGYTYSSNCMGWFRQAPGKEREGVATIYTGGGNTYYADSVKGRFTISQDNAKNTVYLQMNNLKPEDTAMYYCAAEPLSRVYGGSCPTPTFDYWGQGTQVTVSSASHHHHHH
# B4: IL10R binding molecule of SEQ ID NO: 341 (bispecific antibody)
# chain: QVQLQESGGGSVQAGGSLRLSCAASGYSYSSYCMGWFRQAPGKEREGVATIDSDGMTRYADSVKGRFTISKDNAKNTLYLQMNSLKPEDTAMYYCAAPLYDCDSGAVGRNPPYWGQGTQVTVSSGGGSQVQLQESGGGSVQAGGSLRLSCAASRFTYSSYCMGWFRQAPGKEREGVASIDSDGSTSYTDSVKGRFTISKDNAKNTLYLQMNSLKPEDTAMYYCALDLMSTVVPGFCGFLLSAGMDYWGKGTQVTVSSASHHHHHH
# B5: IL10R binding molecule of SEQ ID NO: 342 (bispecific antibody)
# chain: QVQLQESGGGSVQAGGSLRLSCAASGYSYSSYCMGWFRQAPGKEREGVATIDSDGMTRYADSVKGRFTISKDNAKNTLYLQMNSLKPEDTAMYYCAAPLYDCDSGAVGRNPPYWGQGTQVTVSSGGGSQVQLQESGGGSVQAGGSLRLSCAASGYTYSMYCMGWFRQAPGKEREGVAQINSDGSTSYADSVKGRFTISKDNAKNTLYLQMNSLKPEDTAMYYCAADSRVYGGSWYERLCGPYTYEYNYWGQGTQVTVSSASHHHHHH
# B6: IL10R binding molecule of SEQ ID NO: 333 (bispecific antibody)
# chain: QVQLQESGGGSVEAGGSLRLSCAASGYTHSSYCMGWFRQAPGKEREGVAAIDVDGSTTYADSVKGRFTISKDNAKNTLYLQMNSLKPEDTGMYYCAAEFADCSSNYFLPPGAVRYWGQGTQVTVSSGGGSQVQLQESGGGSVQAGGSLRLSCAASRYLYSIDYMAWFRQSPGKEREPVAVIYTASGATFYPDSVKGRFTISQDNAKMTVYLQMNSLKSEDTAMYYCAAVRKTDSYLFDAQSFTYWGQGTQVTVSSASHHHHHH
# B7: IL10R binding molecule of SEQ ID NO: 332 (bispecific antibody)
# chain: QVQLQESGGGSVQAGGSLRLSCTVSRYTASVNYMGWFRQAPGKEREGVATIFTGAGTTYYANSVKGRFTISRDNAKNTAYLQMNSLKPEDTAIYYCAVDFRGGLLYRPAYEYTYRGQGTQVTVSSGGGSQVQLQESGGGSVQAGGSLRLSCAASGYSNCSYDMTWYRQAPGKEREFVSAIHSDGSTRYADSVKGRFFISQDNAKNTVYLQMNSLKPEDTAMYYCKTDPLHCRAHGGSWYSVRANYWGQGTQVTVSSASHHHHHH
# B8: IL10R binding molecule of SEQ ID NO: 335 (bispecific antibody)
# chain: QVQLQESGGGSVEAGGSLRLSCAASGYTHSSYCMGWFRQAPGKEREGVAAIDVDGSTTYADSVKGRFTISKDNAKNTLYLQMNSLKPEDTGMYYCAAEFADCSSNYFLPPGAVRYWGQGTQVTVSSGGGSQVQLQESGGGSVQAGGSLRLSCAASGYTYSMYCMGWFRQAPGKEREGVAQINSDGSTSYADSVKGRFTISKDNAKNTLYLQMNSLKPEDTAMYYCAADSRVYGGSWYERLCGPYTYEYNYWGQGTQVTVSSASHHHHHH
# B9: IL10R binding molecule of SEQ ID NO: 338 (bispecific antibody)
# chain: QVQLQESGGGSVEAGGSLRLSCAASGYTHSSYCMGWFRQAPGKEREGVAAIDVDGSTTYADSVKGRFTISKDNAKNTLYLQMNSLKPEDTGMYYCAAEFADCSSNYFLPPGAVRYWGQGTQVTVSSGGGSQVQLQESGGGSVQAGGSLRLSCGASGYTYSSYCMGWFRQVPGKEREGVAVIDSDGSTSYADSVKGRFTISKDNGKNTLYLQMNSLKPEDTAMYYCAADLGHYRPPCGVLYLGMDYWGKGTQVTVSSASHHHHHH
# B10: IL10R binding molecule of SEQ ID NO: 337 (bispecific antibody)
# chain: QVQLQESGGGSVEAGGSLRLSCAASGYTHSSYCMGWFRQAPGKEREGVAAIDVDGSTTYADSVKGRFTISKDNAKNTLYLQMNSLKPEDTGMYYCAAEFADCSSNYFLPPGAVRYWGQGTQVTVSSGGGSQVQLQESGGGSVQAGGSLRLSCTVSGYTYSSNCMGWFRQAPGKEREGVATIYTGGGNTYYADSVKGRFTISQDNAKNTVYLQMNNLKPEDTAMYYCAAEPLSRVYGGSCPTPTFDYWGQGTQVTVSSASHHHHHH
# B11: IL10R binding molecule of SEQ ID NO: 331 (bispecific antibody)
# chain: QVQLQESGGGSVQAGGSLRLSCTVSRYTASVNYMGWFRQAPGKEREGVATIFTGAGTTYYANSVKGRFTISRDNAKNTAYLQMNSLKPEDTAIYYCAVDFRGGLLYRPAYEYTYRGQGTQVTVSSGGGSQVQLQESGGGSVQAGGSLRLSCGASGYTYSSYCMGWFRQVPGKEREGVAVIDSDGSTSYADSVKGRFTISKDNGKNTLYLQMNSLKPEDTAMYYCAADLGHYRPPCGVLYLGMDYWGKGTQVTVSSASHHHHHH
# B12: IL10R binding molecule of SEQ ID NO: 336 (bispecific antibody)
# chain: QVQLQESGGGSVEAGGSLRLSCAASGYTHSSYCMGWFRQAPGKEREGVAAIDVDGSTTYADSVKGRFTISKDNAKNTLYLQMNSLKPEDTGMYYCAAEFADCSSNYFLPPGAVRYWGQGTQVTVSSGGGSQVQLQESGGGSVQAGGSLRLSCAVSGYAYSTYCMGWFRQAPGKEREGVAAIDSGGSTSYADSVKGRFTISKDNAKNTLYLRMNSLKPEDTAMYYCAAVPPPPDGGSCLFLGPEIKVSKADFRYWGQGTQVTVSSASHHHHHH
# B13: IL10R binding molecule of SEQ ID NO: 340 (bispecific antibody)
# chain: QVQLQESGGGSVQAGGSLRLSCAASGYSYSSYCMGWFRQAPGKEREGVATIDSDGMTRYADSVKGRFTISKDNAKNTLYLQMNSLKPEDTAMYYCAAPLYDCDSGAVGRNPPYWGQGTQVTVSSGGGSQVQLQESGGGSVQAGGSLRLSCAASRYLYSIDYMAWFRQSPGKEREPVAVIYTASGATFYPDSVKGRFTISQDNAKMTVYLQMNSLKSEDTAMYYCAAVRKTDSYLFDAQSFTYWGQGTQVTVSSASHHHHHH
# B14: IL10R binding molecule of SEQ ID NO: 334 (bispecific antibody)
# chain: QVQLQESGGGSVEAGGSLRLSCAASGYTHSSYCMGWFRQAPGKEREGVAAIDVDGSTTYADSVKGRFTISKDNAKNTLYLQMNSLKPEDTGMYYCAAEFADCSSNYFLPPGAVRYWGQGTQVTVSSGGGSQVQLQESGGGSVQAGGSLRLSCAASRFTYSSYCMGWFRQAPGKEREGVASIDSDGSTSYTDSVKGRFTISKDNAKNTLYLQMNSLKPEDTAMYYCALDLMSTVVPGFCGFLLSAGMDYWGKGTQVTVSSASHHHHHH
# B15: IL10R binding molecule of SEQ ID NO: 263 (bispecific antibody)
# chain: QVQLQESGGGSVQAGGSLRLSCAASRFTYSSYCMGWFRQAPGKEREGVASIDSDGSTSYTDSVKGRFTISKDNAKNTLYLQMNSLKPEDTAMYYCALDLMSTVVPGFCGFLLSAGMDYWGKGTQVTVSSGGGSQVQLQESGGGSVQAGGSLRLSCAASGYTYSSGCMGWFRQAPGKEREAVAAINSDGSTSYADSVKGRFTISKDNAKNTLYLQMNSLKPEDTAMYYCAAEPYCSGGYPRWSVAEFGYWGQGTQVTVSSASHHHHHH
# Molecular target: T1, human IL-10 receptor (hIL-10R alpha and …)
# Assay: cell-based or functional assay
Binder,Abs 630 (25 nM),Abs 630 (100 nM)
B1,0.49 Abs 630,0.42 Abs 630
B2,1.38 Abs 630,0.4 Abs 630
B3,0.45 Abs 630,0.36 Abs 630
B4,0.6 Abs 630,0.48 Abs 630
B5,0.45 Abs 630,0.36 Abs 630
B6,0.49 Abs 630,0.54 Abs 630
B7,0.47 Abs 630,0.36 Abs 630
B8,0.5 Abs 630,0.44 Abs 630
B9,0.51 Abs 630,0.41 Abs 630
B10,0.49 Abs 630,0.4 Abs 630
B11,0.5 Abs 630,0.41 Abs 630
B12,0.54 Abs 630,0.45 Abs 630
B13,0.46 Abs 630,0.51 Abs 630
B14,1.43 Abs 630,1.14 Abs 630
B15,1.77 Abs 630,1.02 Abs 630
